According to the Human Domainome abundance scans (Beltran et al. 2025):

B1: Homeobox protein SIX6, residues 134 to 184; numbered along this chain, O95475 (parent)
chain: CFKERTRHLLREWYLQDPYPNPSKKRELAQATGLTPTQVGNWFKNRRQRDR

Variants of: B1
Assay: abundance fitness (aPCA) (normalised: wild type 0, dead -1); higher = more abundant; growth selection in yeast, the domain comes from the species named
Conditions: Homo sapiens

Abundance fitness: each site, then its substitutions
R7: Q 0.02 | S -0.084 | T 0.01 | V -0.058 | Y -0.147
H8: C -0.032 | G -0.1 | S 0.135
L9: A -0.387 | D -0.739 | E -0.751 | F -0.213 | G -0.914 | H -0.626 | I 0.145 | K -0.258 | M -0.238 | N -0.827 | P -0.645 | Q -0.35 | R -0.314 | S -0.793 | T -0.138 | V -0.328 | W -1.12 | Y -0.283
L10: A -1.02 | C -0.608 | E -0.741 | F -0.684 | G -0.983 | H -0.841 | K -0.993 | M -0.676 | N -0.722 | P -0.793 | Q -0.613 | S -0.916 | T -0.888 | V -1.12 | W -0.892
R11: A -0.379 | D -0.612 | E 0.125 | F -0.63 | G -0.119 | H -0.487 | I 0.051 | K 0.066 | L 0.008 | M -0.019 | N 0.27 | P -0.958 | Q 0.268 | S -0.077 | T 0.054 | V -0.249 | W -0.129 | Y 0.097
E12: A -0.427 | C -0.262 | D -0.124 | G -0.393 | H -0.455 | I -0.271 | K -0.504 | L -0.458 | M -0.204 | N -0.428 | P -1.01 | Q -0.365 | R -0.529 | S -0.362 | T -0.33 | V -0.389 | W -0.413 | Y -0.454
W13: A -0.003 | C 0.011 | D -0.765 | E -0.067 | F -0.251 | G -0.157 | H -0.046 | I -0.216 | K -0.528 | L -0.259 | M -0.121 | N 0.24 | P -0.994 | Q -0.021 | R -0.608 | V -0.181 | Y -0.319
Y14: A -0.987 | C -0.994 | D -0.882 | E -0.788 | F -0.071 | G -0.571 | H -0.974 | I -0.64 | K -0.683 | L -0.634 | M -0.825 | P -0.983 | Q -0.918 | R -0.821 | S -0.888 | T -1.06 | V -0.838 | W -0.847
L15: A 0.023 | C 0.49 | D -0.418 | E -0.067 | F -0.651 | G -0.112 | I -0.019 | K 0.003 | N 0.153 | P -0.922 | Q -0.025 | R -0.106 | S -0.03 | V 0.037 | Y -0.185
Q16: A -0.027 | C -0.495 | F -0.27 | H -0.406 | L 0.421 | M -0.253 | P -0.782 | R -0.172 | S -0.127 | V -0.067 | W -0.727 | Y -0.12
D17: A -0.998 | C -0.749 | E -0.643 | F -0.829 | H -0.812 | I -1.01 | K -0.905 | L -0.794 | M -0.849 | P -0.852 | Q -0.678 | R -0.899 | S -0.706 | T -0.914 | V -0.934 | W -0.912 | Y -0.97
P18: A -0.358 | C -0.314 | D -0.734 | E -0.769 | F -1.11 | G -0.824 | H -0.442 | I -0.776 | K -0.42 | L -0.968 | M -0.334 | N -0.696 | Q -0.234 | S -0.458 | T -0.915 | V -0.822 | W -0.491
Y19: A -0.526 | C -0.469 | E -0.41 | F -0.138 | G -0.867 | H -0.364 | I -0.366 | K -0.239 | L -0.488 | M -0.312 | N -0.132 | P -0.673 | Q -0.414 | R -0.177 | S -0.508 | T -0.088 | V -0.625 | W 0.052
P20: A -0.816 | C -0.7 | E -0.969 | G -0.887 | H -0.693 | I -0.466 | K -0.797 | L -0.411 | M -0.817 | Q -0.796 | R -1.02 | S -0.724 | T -0.927 | V -0.613 | W -1.05 | Y -0.559
N21: A -0.222 | C -0.079 | D 0.218 | E -0.129 | F -0.839 | G -0.238 | H 0.337 | I -0.672 | K -0.417 | L -0.149 | M -0.049 | P -0.505 | Q -0.105 | R -0.437 | S -0.071 | T 0.155 | V -0.199 | W -0.817 | Y -0.725
P22: A -0.109 | C 0.146 | D 0.307 | E 0.104 | F -0.241 | G 0.087 | H -0.467 | I -0.618 | K -0.833 | L 0.161 | Q -0.352 | R -0.634 | S 0.015 | T -0.076 | V -0.682 | W -0.281 | Y -0.424
S23: A 0.012 | C -0.444 | D 0.038 | E 0.186 | F -0.272 | G -0.328 | H -0.523 | I -0.579 | K -0.529 | L -0.276 | M -0.257 | N -0.175 | Q -0.028 | R -0.813 | T -0.436 | V -0.35 | W -0.517 | Y -0.726
K24: A -0.009 | C -0.462 | D -0.197 | E -0.188 | F -0.984 | G -0.374 | H -0.493 | I -0.051 | M -0.139 | N -0.281 | P -0.864 | Q 0.074 | R -0.104 | S -0.192 | T -0.058 | V -0.13 | W -0.556 | Y -0.714
K25: A -0.334 | D -0.741 | F -0.272 | G -0.789 | H -0.031 | I 0.118 | L 0.049 | M -0.126 | N -0.48 | P -0.648 | Q 0.158 | R -0.098 | S -0.423 | T -0.074 | W -0.519 | Y -0.338
R26: C 0.055 | E 0.037 | F -0.085 | H -0.121 | I -0.382 | K -0.024 | L 0.039 | N 0.069 | P -0.836 | Q 0.264 | S -0.182 | T -0.429 | V 0.055 | W -0.475 | Y -0.378
E27: A -0.207 | C -0.441 | D -0.194 | F -0.318 | G -0.805 | H -0.773 | K -0.71 | L -0.483 | M -0.696 | N -0.683 | P -0.845 | Q -0.758 | R -0.437 | S -0.679 | T -0.513 | V -0.731 | W -0.231
L28: C -0.79 | E -0.808 | F -0.442 | G -0.883 | H -0.903 | I 0.064 | M -0.04
